This note sets out measurements from PMC10397247.

Common to all, as to assay: two-hybrid library CCNG1;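 note: natural log of median RNA to DNA barcode read ratio; higher means stronger binding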
One assay has as its target T1, 4H349-bA.
T1 chain: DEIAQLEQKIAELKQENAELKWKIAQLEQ

A further assay addresses T2, 4H932-bA.
T2 chain: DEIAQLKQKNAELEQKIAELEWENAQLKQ

The target of another assay is T3, O15-bP.
T3 chain: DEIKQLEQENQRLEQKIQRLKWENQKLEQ

For another assay, the target named is T4, 4H730-bA.
T4 chain: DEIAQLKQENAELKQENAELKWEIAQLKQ

The next assay concerns the target T5, 4H796-bA.
T5 chain: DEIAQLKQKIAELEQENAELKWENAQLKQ

The next assay deals with T6, 4H56-bA.
T6 chain: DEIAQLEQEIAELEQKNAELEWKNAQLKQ

Another assay has as its target T7, 4H949-bA.
T7 chain: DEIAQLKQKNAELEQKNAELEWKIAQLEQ

For DEIAQLEQKIAELKQENAELKWKIAQLEQ [4H349-bA], the interaction score in the assay with 4H349-bA is 0.649; with 4H932-bA it was -0.919; with O15-bP it was 0.584; with 4H730-bA, -0.854; in the assay with 4H796-bA it was -0.458; with 4H56-bA, -0.982. Also, the interaction score in the assay with 4H949-bA was -1.01.
